# In patent US20130131322A1 (MEDICAL AND BIOLOGICAL LABORATORIES, published 2013):
# Positions count from the first letter of the chain named.
# T1: transmembrane TGF-α (human TGF-α positions 1 to 160) expressed on 293T cells (human, UniProt P01135 24-160)
# T1 construct: also called TGF-α/293T; TGFα/293T
# T1 sequence: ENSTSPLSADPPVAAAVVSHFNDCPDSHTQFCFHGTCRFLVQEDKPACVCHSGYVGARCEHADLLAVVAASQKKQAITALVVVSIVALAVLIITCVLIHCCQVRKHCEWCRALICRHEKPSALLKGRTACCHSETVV
# B1: MBL292-1 (antibody, mouse IgG1, V domains shown)
# VH: VQLQQSGAELVRPGASVKLSCTASGFNIKDDYMHWMKQRPEQGLEWIGRIDPANGNTKYAPKFQDKATITADTSSNTAYLQLSSLTSEDTAVYYCSRMGLLRGYWGQGTTLTVSS
# VL: IQMTQSSSSLSVSLGDRVTITCKASVHINSWLAWYQQKPGNAPRLLISGATNLKTGVPSRFSGSASGKDYTLSITSLQTEDVATYYCQQYWDTPWTFGGGTKLEIK
# B2: MBL184-6 (antibody, mouse IgG1, V domains shown)
# VH: EVQLQQSGAELVRPGASVKLSCTVSGFNIKDDYMHWVKQRPEQGLEWIGRIDPANGHTKYAPKFQDKATITADTSSNTAYLQFSSLTSEDTAVYYCTRMGLRRGYWGQGTTLTVSS
# VL: B1 VL with V26E, S73N, D92G
# B3: humanized chimeric anti-TGF-α antibody of MBL292-1 (antibody, human IgG1, V domains shown)
# VH: B1 VH
# VL: B1 VL
# notes: tested as 293T culture supernatant; also called recombinant antibody MBL292-1
# B4: humanized chimeric anti-TGF-α antibody of MBL184-6 (antibody, human IgG1, V domains shown)
# VH: B2 VH
# VL: B1 VL with V26E, S73N, D92G
# notes: tested as 293T culture supernatant; also called recombinant antibody MBL184-6
# B5: MBL352-34 (antibody, mouse IgG1, V domains shown)
# VH: B1 VH with M36V, N56H, L82F, S96T, L101R
# VL: B1 VL with V26E, D92G
# B6: humanized chimeric anti-TGF-α antibody of MBL352-34 (antibody, human IgG1, V domains shown)
# VH: B1 VH with M36V, N56H, L82F, S96T, L101R
# VL: B1 VL with V26E, D92G
# notes: tested as 293T culture supernatant; also called recombinant antibody MBL352-34
# B7: MBL144-1 (antibody, mouse IgG1, V domains shown)
# VH: VQLQESGPGLAKPSQTLSLTCSVTGYSITSDYWNWIRKFPGNKLEYMGYISYSGSTYYNPSLKSRISITRDTSKNQYYLQLNSVTTEDTATYYCARSYDGICFDNWGQGTTLTVSS
# VL: DILMTQSPATLSVTPGETVSLSCRASQNTYKNLHWYQQKSHGTPKLLIKYASAPISGIPSRFTGSGSGTDYTLSINSVKPEDEGIYYCLQGYSMPWTFGGGTKLEIK
# B8: humanized chimeric anti-TGF-α antibody of MBL144-1 (antibody, human IgG1, V domains shown)
# VH: B7 VH
# VL: B7 VL
# notes: tested as 293T culture supernatant; also called recombinant antibody MBL144-1
# B9: MBL016-8 (antibody, mouse IgG2a, V domains shown)
# VH: VQLQQSGAELVRPGASVKLSCTASGFNIKDDYMYWVKQRPEQGLEWIGRIDPANGNTKYAPKFQDKATITADTSSNTAYLHLSSLTSEDTAVFYCAYRRAYWGQGTLVTVSA
# VL: DIQMTQSPSSLSASLGGKVTITCKASQDINKYIAWYQHKPGKGPRLFIHYTSKLQPGIPSRFSGSGSGRDYSFSISNLEPEDIATYYCLQYDNLLYTFGGGTKLEIK
# B10: humanized chimeric anti-TGF-α antibody of MBL016-8 (antibody, human IgG1, V domains shown)
# VH: B9 VH
# VL: B9 VL
# notes: tested as 293T culture supernatant; also called recombinant antibody MBL016-8
# B11: MBL259-3 (antibody, mouse IgG2a, V domains shown)
# VH: VQLQQSGAELVRPGASVKLSCTASDFNIKDDYMHWMKQRPEQGLEWIGRIDPANGNTKYAPKFQDKATMTADTSSNTAYLQFSSLTSEDTAVYYCATSWGFPYWGQGTLVTVSA
# VL: DIVMTQAAPSVPVTPGESVSISCRSSKSLLHRNGNTYLYWFLQRPGQSPQLLIYRMSNLASGVPDRFSGSGSGTAFTLRISRVEAEDVGVYYCLQHLEYPYTFGSGTKLEIK
# B12: humanized chimeric anti-TGF-α antibody of MBL259-3 (antibody, human IgG1, V domains shown)
# VH: B11 VH
# VL: B11 VL
# notes: tested as 293T culture supernatant; also called recombinant antibody MBL259-3
# B13: MBL009-15 (antibody, mouse IgG1, V domains shown)
# VH: VQLQESGPGLVKPSQSLSLTCTVTGYSITSDYAWNWIRQFPGNKLEWMGYISYSGSTSYNPSLKSRISITRDTSKNQFFLQLNSVTTEDTATYYCARGGITRFAYWGQGTLVTVSA
# VL: DIQMTQTTSSLSASLGDRLTISCRASQDIRNYLNWYQQKPDGTVKLLIYYTSRLHSGVPSRFSGSGSGTDYSLTISNLEQEDIATYFCQQGNTLPWTFGGGTKLEIK
# B14: humanized chimeric anti-TGF-α antibody of MBL009-15 (antibody, human IgG1, V domains shown)
# VH: B13 VH
# VL: B13 VL
# notes: tested as 293T culture supernatant; also called recombinant antibody MBL009-15
# B15: MBL018-1 (antibody, mouse IgG1, V domains shown)
# VH: EVQLQQSGTVLTRPGASVKMSCKASGYTFTNFWIHWVKQRPGQGLDWIGAIYPGNTNTDYNQKFQGKAKLTAVSSASTAYMELSSLTNEDSAVYYCTRGGAMDYWGQGTSVTVSS
# VL: IVMTQTPKLLPVSAGDRVTMTCKASQSVDNSVAWYQQKPGQSPKLLIFYASNHYTGVPDRFTASGSGTDFTFTISSVQVEDLAVYFCQQHFSSPRTFGGGTKLEIR
# B16: humanized chimeric anti-TGF-α antibody of MBL018-1 (antibody, human IgG1, V domains shown)
# VH: B15 VH
# VL: B15 VL
# notes: tested as 293T culture supernatant; also called recombinant antibody MBL018-1
# Legend:
# [1] = molecular target: commercially-available secreted TGF-α biosynthesized by Escherichia coli (R&D systems Inc.) (human, UniProt P01135 40-89); assay: cell-based or functional assay
# TGF-α-hFc = molecular target: T2, TGF-α-hFc (human, UniProt P01135 40-89); assay: solid phase ELISA, TGFα-hFc on plate
# T2 construct: not shown: Fc portion of human immunoglobulin G1, fused on the C-terminal side
# [2] = molecular target: T3, G79A-substituted human TGF-α expressed on 293T cells (human, UniProt P01135 24-160); assay: flow cytometry on 293T cells
# T3 construct: Made from pDIG-TGF-α (positions 1 to 160); also called G79A substitution analog; G79A-substituted TGF-α
# Protocol: (§1) After washed with a wash buffer twice, the cells were allowed to react with a 200-fold diluted PE-labeled anti-mouse IgG antibody (MBL CO., LTD.) at 4° C. for 60 minutes.
# [3] = molecular target: T4, H74A-substituted human TGF-α expressed on 293T cells (human, UniProt P01135 24-160); assay: flow cytometry on 293T cells
# T4 construct: Made from pDIG-TGF-α (positions 1 to 160); also called H74A substitution analog
# Protocol: as §1
# proTGF-α-hFc = molecular target: T5, proTGF-α-hFc (human, UniProt P01135 24-89); assay: solid phase ELISA, proTGFα-hFc on plate
# T5 construct: not shown: Fc portion of human immunoglobulin G1, fused on the C-terminal side
# [4] = molecular target: T1, transmembrane TGF-α (human TGF-α …); assay: flow cytometry, culture supernatant on transmembrane TGF-α/293T
Binder,"inhibition of EGFR tyrosine phosphorylation (P-Tyr1173) in A431 cells, antibody at 10 µg/mL [1] [%]",OD (solid phase ELISA) (TGF-α-hFc) [OD],binding result [2],binding result [3],OD (solid phase ELISA) (proTGF-α-hFc) [OD],binding result [4]
B1,≥ 70,1.04,no binding (tested: 5 µg/mL),binds,1.45,–
B2,≥ 70,0.745,no binding (tested: 5 µg/mL),binds,1.4,–
B3,–,–,–,–,–,binds
B4,–,–,–,–,–,binds
B5,≥ 70,0.704,no binding (tested: 5 µg/mL),binds,1.35,–
B6,–,–,–,–,–,binds
B7,≥ 70,0.65,no binding (tested: 5 µg/mL),binds,1.42,–
B8,–,–,–,–,–,binds
B9,≥ 70,0.869,no binding (tested: 5 µg/mL),binds,1.37,–
B10,–,–,–,–,–,binds
B11,–,1.11,no binding (tested: 5 µg/mL),binds,1.59,–
B12,–,–,–,–,–,binds
B13,–,0.879,no binding (tested: 5 µg/mL),binds,1.51,–
B14,–,–,–,–,–,binds
B15,≥ 70,0.703,no binding (tested: 5 µg/mL),binds,1.51,–
B16,–,–,–,–,–,binds
